No end group written: not given here. *: point of attachment. Biotin = O=C1N[C@H]2[C@H](CS[C@H]2CCCCC(=O)*)N1
Biological target: E. coli replicative helicase DnaB, purified (E. coli, UniProt P0ACB0 1-471)
Experiment: SPR

Chain of E. coli replicative helicase DnaB, purified (P0ACB0 whole entry): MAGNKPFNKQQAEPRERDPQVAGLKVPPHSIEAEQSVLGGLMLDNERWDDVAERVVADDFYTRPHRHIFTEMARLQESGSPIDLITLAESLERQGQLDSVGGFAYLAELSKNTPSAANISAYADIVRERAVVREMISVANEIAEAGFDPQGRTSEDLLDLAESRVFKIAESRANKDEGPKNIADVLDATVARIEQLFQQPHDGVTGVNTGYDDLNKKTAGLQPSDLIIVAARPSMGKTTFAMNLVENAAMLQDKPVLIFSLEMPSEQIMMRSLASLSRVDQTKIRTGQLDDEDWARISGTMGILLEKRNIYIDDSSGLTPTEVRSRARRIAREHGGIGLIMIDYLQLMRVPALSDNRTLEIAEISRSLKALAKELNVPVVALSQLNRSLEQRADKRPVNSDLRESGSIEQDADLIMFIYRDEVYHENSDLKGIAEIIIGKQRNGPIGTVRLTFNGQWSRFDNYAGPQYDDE

B1: C33^Rep peptide (synthetic peptide corresponding to the C-terminal 33 residues of Rep) (peptide)
peptide: Biotin-EQERKVVSAEERMQKGQSHLANLKAMMAAKRGK
- Kd: 44 nM

Reference: paper PMC2807033 (2009)
